Values belong to the substance of their own block, whether it stands above or below them.
Legend:
[1] = biological target: Myf5 (full length, mouse) (mouse) (UniProt P24699)
[2] = biological target: MyoD (full length, mouse) (mouse) (UniProt P10085)
[3] = biological target: Myf5 (full length, mouse) (mouse) (UniProt P24699); remark: listed apart in the source
[4] = biological target: Myogenin (full length, mouse) (mouse) (UniProt P12979)
[5] = biological target: NLSMyf5 (mouse) (UniProt P24699)
[6] = biological target: Myf5 (full length, mouse) (mouse) (UniProt P24699); remark: listed apart in the source
[7] = biological target: NLSMyogenin (mouse) (UniProt P12979)
[8] = biological target: Myogenin (full length, mouse) (mouse) (UniProt P12979); remark: listed apart in the source
[9] = biological target: E12
[10] = biological target: MyoD (full length, mouse) (mouse) (UniProt P10085); assay: yeast one-hybrid, strain L40, β-galactosidase reporter
[11] = biological target: Myf5 (full length, mouse) (mouse) (UniProt P24699); assay: as above
[12] = biological target: T1, Lethal of Scute (AS-C T3) (Drosophila melanogaster (Fruit fly)) (UniProt P09774); assay: as above
T1 sequence: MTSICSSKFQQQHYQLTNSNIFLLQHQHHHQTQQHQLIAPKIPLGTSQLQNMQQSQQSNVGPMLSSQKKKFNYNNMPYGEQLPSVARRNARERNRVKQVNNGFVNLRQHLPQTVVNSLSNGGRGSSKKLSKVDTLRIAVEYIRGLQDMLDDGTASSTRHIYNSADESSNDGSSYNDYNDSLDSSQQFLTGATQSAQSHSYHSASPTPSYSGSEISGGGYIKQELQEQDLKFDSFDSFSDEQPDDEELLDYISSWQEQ

[13] = biological target: E12; assay: as above
[14] = biological target: MyoDΔN-VP16 (Mus musculus (Mouse)) (UniProt P10085); assay: yeast two-hybrid, strain L40, β-galactosidase reporter
[15] = biological target: MyoDΔC-VP16 (Mus musculus (Mouse)) (UniProt P10085); assay: as above
[16] = biological target: VP16 (Human herpesvirus 1 (strain 17) (HHV-1) (Human herpes simplex virus 1)) (UniProt P06492); assay: yeast hybrid assay, strain L40, β-galactosidase reporter
[17] = biological target: Myf5 (full length, mouse) (mouse) (UniProt P24699); assay: as above
[18] = biological target: T2, VP16-I-mfa (mouse); assay: as above
T2 sequence: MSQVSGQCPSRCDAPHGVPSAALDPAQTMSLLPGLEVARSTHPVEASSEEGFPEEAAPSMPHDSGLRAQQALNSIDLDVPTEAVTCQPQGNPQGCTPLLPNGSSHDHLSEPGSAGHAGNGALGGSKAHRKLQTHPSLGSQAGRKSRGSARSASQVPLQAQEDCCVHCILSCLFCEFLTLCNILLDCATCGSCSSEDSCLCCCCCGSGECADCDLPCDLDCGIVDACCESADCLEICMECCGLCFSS

[19] = biological target: VP16-I-mfc (mouse); assay: as above
[20] = biological target: VP16-I-mfb (mouse); assay: as above
[21] = biological target: VP16-I-mfc (mouse); assay: yeast hybrid assay, strain L40, β-galactosidase reporter; this LexA fusion is also active with VP16 alone
[22] = biological target: Myf5 (full length, mouse) (mouse) (UniProt P24699); assay: as above
[23] = biological target: T2, VP16-I-mfa (mouse); assay: as above
[24] = biological target: VP16-I-mfb (mouse); assay: as above
[25] = biological target: full length Myf5 or myogenin; assay: yeast one-hybrid, strain L40, β-galactosidase reporter
[26] = biological target: Myogenin (full length, mouse) (mouse) (UniProt P12979); assay: as above
[27] = tested on: Myogenin (Mus musculus); assay: cell_activity; conditions: NIH3T3
[28] = tested on: MyoD (Mus musculus); assay: cell_activity; conditions: NIH3T3
[29] = tested on: Myf5 (Mus musculus); assay: cell_activity; conditions: NIH3T3
[30] = tested on: E12; assay: cell_activity; conditions: NIH3T3; 76.3% with I-mfa

LexA-I-mfa, sequence (P0A7C2 other isoform, or with tags, fused parts or gaps limits assumed): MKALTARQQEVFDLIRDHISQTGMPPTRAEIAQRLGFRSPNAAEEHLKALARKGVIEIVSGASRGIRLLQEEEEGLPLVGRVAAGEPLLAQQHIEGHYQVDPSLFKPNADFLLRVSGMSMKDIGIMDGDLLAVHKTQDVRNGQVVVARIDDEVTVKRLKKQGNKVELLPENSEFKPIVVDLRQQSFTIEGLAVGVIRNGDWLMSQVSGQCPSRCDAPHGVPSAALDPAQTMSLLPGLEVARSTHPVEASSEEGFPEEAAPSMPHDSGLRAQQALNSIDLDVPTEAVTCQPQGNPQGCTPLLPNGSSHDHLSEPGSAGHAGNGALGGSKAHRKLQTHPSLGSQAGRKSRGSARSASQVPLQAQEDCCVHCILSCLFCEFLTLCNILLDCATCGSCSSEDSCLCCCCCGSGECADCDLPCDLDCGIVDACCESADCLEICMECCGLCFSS
LexA-I-mfc, sequence (P0A7C2 other isoform, or with tags, fused parts or gaps limits assumed): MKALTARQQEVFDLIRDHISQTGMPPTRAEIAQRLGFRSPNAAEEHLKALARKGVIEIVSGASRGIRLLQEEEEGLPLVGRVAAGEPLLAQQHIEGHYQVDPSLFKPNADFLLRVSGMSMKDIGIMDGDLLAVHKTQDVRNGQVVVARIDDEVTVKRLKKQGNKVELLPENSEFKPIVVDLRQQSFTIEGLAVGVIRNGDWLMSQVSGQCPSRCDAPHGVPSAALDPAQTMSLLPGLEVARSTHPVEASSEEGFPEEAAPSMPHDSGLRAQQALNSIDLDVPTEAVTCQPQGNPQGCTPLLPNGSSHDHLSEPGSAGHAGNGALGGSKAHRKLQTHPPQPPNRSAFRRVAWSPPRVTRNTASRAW
LexA-I-mfb, sequence (P0A7C2 other isoform, or with tags, fused parts or gaps limits assumed): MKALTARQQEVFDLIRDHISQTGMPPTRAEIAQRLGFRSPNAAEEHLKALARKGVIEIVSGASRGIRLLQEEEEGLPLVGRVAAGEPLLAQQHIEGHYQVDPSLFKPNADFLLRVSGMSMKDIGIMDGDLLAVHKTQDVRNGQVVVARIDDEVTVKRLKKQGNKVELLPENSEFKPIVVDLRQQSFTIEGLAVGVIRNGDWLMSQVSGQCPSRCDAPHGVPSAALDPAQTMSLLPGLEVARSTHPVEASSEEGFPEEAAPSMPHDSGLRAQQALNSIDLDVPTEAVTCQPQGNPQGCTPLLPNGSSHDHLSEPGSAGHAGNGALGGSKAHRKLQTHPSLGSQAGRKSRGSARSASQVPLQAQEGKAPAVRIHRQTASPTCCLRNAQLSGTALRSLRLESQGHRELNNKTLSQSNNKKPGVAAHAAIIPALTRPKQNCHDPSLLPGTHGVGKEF
LexA-I-mfa (163-246), sequence (P0A7C2 other isoform, or with tags, fused parts or gaps limits assumed): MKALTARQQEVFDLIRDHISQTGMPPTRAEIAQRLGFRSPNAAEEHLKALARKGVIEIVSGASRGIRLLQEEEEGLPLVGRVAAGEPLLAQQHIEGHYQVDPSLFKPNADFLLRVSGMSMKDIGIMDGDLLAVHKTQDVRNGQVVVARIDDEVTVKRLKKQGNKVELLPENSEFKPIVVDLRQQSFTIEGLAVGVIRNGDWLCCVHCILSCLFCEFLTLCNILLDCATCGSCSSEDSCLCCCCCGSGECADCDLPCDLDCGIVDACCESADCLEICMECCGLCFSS
LexA, sequence (P0A7C2 whole entry): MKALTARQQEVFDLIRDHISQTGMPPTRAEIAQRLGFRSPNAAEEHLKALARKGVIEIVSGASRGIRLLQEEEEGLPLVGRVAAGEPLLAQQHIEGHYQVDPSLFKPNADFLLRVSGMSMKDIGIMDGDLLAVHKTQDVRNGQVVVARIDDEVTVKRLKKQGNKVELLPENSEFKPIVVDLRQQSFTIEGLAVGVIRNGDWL
Myogenin (full length, mouse) (mouse), sequence (P12979 whole entry): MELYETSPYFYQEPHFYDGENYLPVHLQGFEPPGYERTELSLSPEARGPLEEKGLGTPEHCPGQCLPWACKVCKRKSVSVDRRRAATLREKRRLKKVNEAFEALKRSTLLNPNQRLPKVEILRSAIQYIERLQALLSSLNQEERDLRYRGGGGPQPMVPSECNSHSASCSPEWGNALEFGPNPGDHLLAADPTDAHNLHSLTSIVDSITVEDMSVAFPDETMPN
LexA-I-mfa (203-246), sequence (P0A7C2 other isoform, or with tags, fused parts or gaps limits assumed): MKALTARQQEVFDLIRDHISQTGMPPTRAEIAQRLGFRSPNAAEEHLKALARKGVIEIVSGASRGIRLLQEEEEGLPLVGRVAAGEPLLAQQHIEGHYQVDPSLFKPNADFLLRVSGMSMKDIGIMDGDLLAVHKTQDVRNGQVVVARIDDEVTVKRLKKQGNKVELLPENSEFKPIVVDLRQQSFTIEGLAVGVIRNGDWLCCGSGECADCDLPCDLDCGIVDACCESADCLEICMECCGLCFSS

CAT (%) +Myf5, p4R-TK-CAT reporter, NIH3T3 [1]: 2%
Relative CAT Activity (%), p4R-TK-CAT, NIH3T3 [2]: 10.6%
Relative CAT Activity (%), p4R-TK-CAT, NIH3T3 [3]: 0.9%
Relative CAT Activity (%), p4R-TK-CAT, NIH3T3 [4]: 1.5%
Relative CAT Activity (%), experiment of Table 7 [5]: 3.7%
Relative CAT Activity (%), experiment of Table 7 [6]: 0.1%
Relative CAT Activity (%), experiment of Table 7 [7]: 7.5%
Relative CAT Activity (%), experiment of Table 7 [8]: 0.6%
Substance: HA-I-mfa

CAT (%) +Myf5, p4R-TK-CAT reporter, NIH3T3 [1]: 5%
CAT (%) +E12, p4R-TK-CAT reporter, NIH3T3 [9]: 113%
Substance: HA-I-mfa (1-202)

CAT (%) +Myf5, p4R-TK-CAT reporter, NIH3T3 [1]: 4%
CAT (%) +E12, p4R-TK-CAT reporter, NIH3T3 [9]: 81%
Substance: HA-I-mfa (29-246)

CAT (%) +Myf5, p4R-TK-CAT reporter, NIH3T3 [1]: 7%
CAT (%) +E12, p4R-TK-CAT reporter, NIH3T3 [9]: 89%
Substance: HA-I-mfa (87-202)

CAT (%) +Myf5, p4R-TK-CAT reporter, NIH3T3 [1]: 2%
CAT (%) +E12, p4R-TK-CAT reporter, NIH3T3 [9]: 53%
Substance: HA-I-mfa (87-246)

Substance: HA-I-mfa (163-202)
CAT (%) +Myf5, p4R-TK-CAT reporter, NIH3T3 [1]: 44%
CAT (%) +E12, p4R-TK-CAT reporter, NIH3T3 [9]: 98%

CAT (%) +Myf5, p4R-TK-CAT reporter, NIH3T3 [1]: 2%
CAT (%) +E12, p4R-TK-CAT reporter, NIH3T3 [9]: 18%
Substance: HA-I-mfa (163-246)

CAT (%) +Myf5, p4R-TK-CAT reporter, NIH3T3 [1]: 78%
CAT (%) +E12, p4R-TK-CAT reporter, NIH3T3 [9]: 93%
Substance: HA-I-mfa (203-246)

CAT (%) +Myf5, p4R-TK-CAT reporter, NIH3T3 [1]: 74.5%
CAT (%) +E12, p4R-TK-CAT reporter, NIH3T3 [9]: 100%
Relative CAT Activity (%), p4R-TK-CAT, NIH3T3 [2]: 96.5%
Relative CAT Activity (%), p4R-TK-CAT, NIH3T3 [3]: 94.8%
Relative CAT Activity (%), p4R-TK-CAT, NIH3T3 [4]: 82.7%
Substance: HA-I-mfb

CAT (%) +Myf5, p4R-TK-CAT reporter, NIH3T3 [1]: 65%
CAT (%) +E12, p4R-TK-CAT reporter, NIH3T3 [9]: 99%
Relative CAT Activity (%), p4R-TK-CAT, NIH3T3 [2]: 96.1%
Relative CAT Activity (%), p4R-TK-CAT, NIH3T3 [3]: 96.4%
Relative CAT Activity (%), p4R-TK-CAT, NIH3T3 [4]: 68%
Substance: HA-I-mfc

Substance: LexA (from UniProt P0A7C2)
β-galactosidase activity (arbitrary units) [10]: 0.6
β-galactosidase activity (arbitrary units) [11]: 0.9
β-galactosidase activity (arbitrary units) [12]: 1.6
β-galactosidase activity (arbitrary units) [13]: 2.3
β-galactosidase activity (arbitrary units) [14]: 0.9
β-galactosidase activity (arbitrary units) [15]: 0.6

Substance: LexA-I-mfa (1-202) (from UniProt P0A7C2)
β-galactosidase activity (arbitrary units) [16]: < 0.1
β-galactosidase activity (arbitrary units) [17]: 34.5
β-galactosidase activity (arbitrary units) [18]: 95

Substance: LexA-I-mfa (29-246) (from UniProt P0A7C2)
β-galactosidase activity (arbitrary units) [16]: 0.8
β-galactosidase activity (arbitrary units) [17]: 84.7
β-galactosidase activity (arbitrary units) [18]: 10.1

Substance: LexA-I-mfa (87-202) (from UniProt P0A7C2)
β-galactosidase activity (arbitrary units) [16]: < 0.1
β-galactosidase activity (arbitrary units) [17]: 27.6
β-galactosidase activity (arbitrary units) [18]: 9.3

Substance: LexA-I-mfa (87-246) (from UniProt P0A7C2)
β-galactosidase activity (arbitrary units) [19]: 0.7
β-galactosidase activity (arbitrary units) [16]: 0.8
β-galactosidase activity (arbitrary units) [17]: 74.3
β-galactosidase activity (arbitrary units) [18]: 12.5

Substance: LexA-I-mfa (163-246) (from UniProt P0A7C2)
β-galactosidase activity (arbitrary units) [19]: 0.2
β-galactosidase activity (arbitrary units) [16]: 0.3
β-galactosidase activity (arbitrary units) [17]: 71.3
β-galactosidase activity (arbitrary units) [18]: 3.8
β-galactosidase activity (arbitrary units) [20]: 0.6

Substance: LexA-I-mfa (203-246) (from UniProt P0A7C2)
β-galactosidase activity (arbitrary units) [21]: 52.3
β-galactosidase activity (arbitrary units) [22]: 57.2
β-galactosidase activity (arbitrary units) [23]: 95.2
β-galactosidase activity (arbitrary units) [24]: 39.2
β-galactosidase activity (arbitrary units) [16]: 45.8

Substance: LexA-I-mfa (from UniProt P0A7C2)
β-galactosidase activity (arbitrary units) [16]: 0.5
β-galactosidase activity (arbitrary units) [17]: 66
β-galactosidase activity (arbitrary units) [18]: 6.4
fold β-galactosidase activity over the LexA-I-mfa control [10]: 5 fold
β-galactosidase activity (arbitrary units) [10]: 4.3
fold β-galactosidase activity over LexA-I-mfa alone [25]: 70 to 80 fold
β-galactosidase activity (arbitrary units) [11]: 68.5
β-galactosidase activity (arbitrary units) [12]: 2.3
β-galactosidase activity (arbitrary units) [13]: 2.3
β-galactosidase activity (arbitrary units) [26]: 63.6
β-galactosidase activity (arbitrary units) [14]: 96.4
β-galactosidase activity (arbitrary units) [15]: 5.6

Substance: LexA-I-mfa(163-202) (from UniProt P0A7C2)
β-galactosidase activity (arbitrary units) [19]: < 0.1
β-galactosidase activity (arbitrary units) [17]: 57.1
β-galactosidase activity (arbitrary units) [18]: 4.3
β-galactosidase activity (arbitrary units) [20]: 0.2

Substance: LexA-I-mfb (from UniProt P0A7C2)
β-galactosidase activity (arbitrary units) [16]: < 0.1
β-galactosidase activity (arbitrary units) [17]: < 0.1
β-galactosidase activity (arbitrary units) [18]: 0.2
β-galactosidase activity (arbitrary units) [20]: < 0.1
β-galactosidase activity (arbitrary units) [10]: 1.1
β-galactosidase activity (arbitrary units) [11]: 0.4
β-galactosidase activity (arbitrary units) [13]: 0.6

Substance: LexA-I-mfc (from UniProt P0A7C2)
β-galactosidase activity (arbitrary units) [19]: < 0.1
β-galactosidase activity (arbitrary units) [16]: < 0.1
β-galactosidase activity (arbitrary units) [18]: < 0.1
β-galactosidase activity (arbitrary units) [10]: 0.4
β-galactosidase activity (arbitrary units) [12]: 0.1
β-galactosidase activity (arbitrary units) [13]: 1.4

Substance: MCK-CAT reporter, 3.3 kb MCK promoter
activity ([27]; reduced to 2% by I-mfa, text names p4R-TK-CAT but Table 6 MCK-CAT): 33000 CAT units
activity ([28]; reduced to 27% by I-mfa, text names p4R-TK-CAT but Table 6 MCK-CAT): 37200 CAT units
activity ([29]; reduced to 9% by I-mfa, text names p4R-TK-CAT but Table 6 MCK-CAT): 79500 CAT units

Substance: p4R-TK-CAT reporter, four oligomerized MyoD binding sites (E boxes)
activity ([27]; reduced to 1.5% by I-mfa): 17400 CAT units
activity ([28]; reduced to 10.6% by I-mfa): 55400 CAT units
activity [30]: 53600 CAT units
activity ([29]; reduced to 0.9% by I-mfa): 53100 CAT units
